From patent US20240069033A1, “METHOD FOR SCREENING FOR CANDIDATE MOLECULE CAPABLE OF FORMING COMPLEX IN CONJUNCTION WITH PLURALITY OF TARGET MOLECULES” (Chugai Seiyaku Kabushiki Kaisha, priority 2020, published 2024)

Assays:
[1] = Complementation assay of splitSNAP-tag using mRNA display (reaction with SNAP-Biotin, streptavidin pull-down, qPCR); assay type: biochemical; settings: for Recovery rate (%): apparent recovery rate corrected with display efficiency; for Recovered nucleic acid amount (molecules): reaction with SNAP-Biotin 37° C. 30 minutes, streptavidin pull-down, qPCR; for Apparent recovery rate (%): recovered / theoretical value of added nucleic acid amount
Method: To this solution, ¼ amount of a PBS solution containing 5 mM DTT, 2500 nM SNAP-Biotin (New England BioLabs, Inc.) was added, and the enzymatic reaction was performed at 37° C. for 30 minutes.

[2] = test system: anti-ubiquitin antibody fixed bead; assay: Complementation assay of splitUbiquitin with Kpep/Epep charged peptides using mRNA display; assay type: binding; settings: for Recovered nucleic acid amount (molecules): Display molecules 0.2 μM each (pairs) or 0.4 μM (alone), anti-ubiquitin antibody beads, qPCR; for Recovery rate (%): apparent recovery rate corrected with display efficiency; for Apparent recovery rate (%): recovered/input nucleic acid amount
Method: Next, Display molecules composed of constructs (SEQ ID NO: 55 (P-11) to SEQ ID NO: 57 (P-13)) in which splitUb(N) and splitUb(C) each were added with a charged peptide sequence (K-peptide containing an amino acid having a positive charge) (sometimes referred to as “Kpep”) or E-peptide containing an amino acid having a negative charge (“Epep”)) were prepared. When the added peptides are attracted to each other by charges, splitUbs become in proximity to each other and recovered by an anti-ubiquitin antibody. Conversely, when the added peptides are repelled to each other by charges, splitUbs are not recovered. Once this is validated, the complexation of molecules added to splitUbs can be evaluated with the recovery rate through ubiquitin and anti-ubiquitin antibodies.
Reactions were made under the same conditions as in condition 1, except that, in condition 2, the Display molecule of Epep-splitUb(N) and the Display molecule of Epep-splitUb(C) were added at 0.2 μM; in condition 3, the Display molecule of Kpep-splitUb(N) was added at 0.4 μM; in condition 4, the Display molecule of Epep-splitUb(N) was added at 0.4 μM; and in condition 5, the Display molecule of Epep-splitUb(C) was added at 0.4 μM.

| Molecule | Recovery rate (%) [1] | recovery rate higher than other controls ([1]; in the presence of SNAP-Biotin) | Recovered nucleic acid amount (molecules) [1] | Apparent recovery rate (%) [1] | Recovered nucleic acid amount (molecules) [2] | Recovery rate (%) [2] | Apparent recovery rate (%) [2] |
| --- | --- | --- | --- | --- | --- | --- | --- |
| SNAP(full): mRNA Display molecule of full-length SNAP tag with C-terminal GS linker (SEQ ID NO: 44) (conjugate, mRNA display linkage; SNAP (full)-GS5) MDKDCEMKRTTLDSPLGKLELSGCEQGLHRIIFLGKGTSAADAVEVPAPAAVLGGPEPLMQATAWLNAYFHQPEAIEEFPVPALHHPVFQQESFTRQVLWKLLKVVKFGEVISYSHLAALAGNPAATAAVKTALSGNPVPILIPCHRVVQGDLDVGGYEGGLAVKEWLLAHEGHRLGKPGLGPAGGSAFKLEVNGSGSGSGSGSKK | 14.364% | at least 50 times | 4.78E+09 molecules | 4.740% |  |  |  |
| SNAP(N): mRNA Display molecule of SNAP tag N-terminal fragment with C-terminal GS linker (SEQ ID NO: 42) (conjugate, mRNA display linkage; splitSNAP (N)-GS5) MDKDCEMKRTTLDSPLGKLELSGCEQGLHRIIFLGKGTSAADAVEVPAPAAVLGGPEPLMQATAWLNAYFHQPEAIEEFPVPALHHPVFQQGSGSGSGSGSKK | 0.097% |  | 6.26E+07 molecules | 0.062% |  |  |  |
| SNAP(C): mRNA Display molecule of SNAP tag C-terminal fragment with C-terminal GS linker (SEQ ID NO: 43) (conjugate, mRNA display linkage; SNAP (C)-GS5) MVDESFTRQVLWKLLKVVKFGEVISYSHLAALAGNPAATAAVKTALSGNPVPILIPCHRVVQGDLDVGGYEGGLAVKEWLLAHEGHRLGKPGLGPAGGSAFKLEVNGSGSGSGSGSKK | 0.035% |  | 6.76E+06 molecules | 0.007% |  |  |  |
| Epep-splitUb (N): mRNA Display molecule of splitUb(N) with negatively charged E-peptide (SEQ ID NO: 56) (conjugate, mRNA display linkage; Epep-splitUb(N)-GS4) MKVSALENEVSALEKEVSVLEKEVSALEKEVRALEKGSGSGSGSMQIFVKTLTGKTATLEVEPSDTIENVKAKIQDKEGIPGSGSGSGSKK |  |  |  |  | 3.77E+05 molecules | 0.0004% | 0.0001% |
| Kpep-splitUb (N): mRNA Display molecule of splitUb(N) with positively charged K-peptide (SEQ ID NO: 55) (conjugate, mRNA display linkage; Kpep-splitUb(N)-GS4) MKVSALKENVSALKEKVSALTEKVSALKEKVSALKEGSGSGSGSMQIFVKTLTGKTATLEVEPSDTIENVKAKIQDKEGIPGSGSGSGSKK |  |  |  |  | 2.28E+06 molecules | 0.0008% | 0.0005% |
